In PMC7772352:

Biological target: Tva-HA-Fc

Row | Substance | percentage of GFP fluorescence signal in DF-1 cells transfected with RCASBPGDFX0602 G196A-EGFP (recombinant virus; wild type 89.65%) [%] | percentage of GFP fluorescence signal in DF-1 cells transfected with RCASBP GDFX0602 R198H-EGFP (recombinant virus; wild type 89.65%) [%]
1 | soluble gp85-flag G196A (natural protein) | 0.24 | 
2 | soluble gp85-flag R198H (natural protein) |  | 0.49
